Data published in patent publication US20220112291A1.

Molecular target: human CD1a expressed on cells (human) (UniProt P06126)
Assay: cell-based or functional assay

human CD1a expressed on cells (human), sequence (P06126 17-327): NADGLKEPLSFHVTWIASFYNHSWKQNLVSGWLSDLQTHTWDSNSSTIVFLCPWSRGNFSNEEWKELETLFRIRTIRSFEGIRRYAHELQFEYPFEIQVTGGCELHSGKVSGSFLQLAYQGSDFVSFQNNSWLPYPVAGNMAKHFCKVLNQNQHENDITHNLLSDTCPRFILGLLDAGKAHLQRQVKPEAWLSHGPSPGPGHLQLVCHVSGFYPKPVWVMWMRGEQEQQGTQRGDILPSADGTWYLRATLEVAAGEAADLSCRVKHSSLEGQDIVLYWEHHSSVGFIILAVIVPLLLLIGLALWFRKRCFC

Row | CD69 expression, IC50 | IL-2 secretion, IC50 | Substance
1 | > 100 nM | > 100 nM | Human IgG1 (EFN) isotype control (antibody)
2 | 0.042 nM | 0.028 nM | OKT6-human IgG1 (EFN) (antibody)
